Sequences and labels used below:
B1: CPEB3 Ribozyme (parent)
chain: UAACAGGGGGCCACAGCAGAAGCGUUCACGUCGCAGCCCCUGUCAGAUUCUGGUGAAUCUGCGAAUUCUGCUGUAUAUCUC

Variants of B1 are the subject of this series. Briefly: self-cleavage, relative activity (ratio to wild type); higher = more cleavage; in vitro, sequencing. Put shortly:
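For each CPEB3 ribozyme variant, relative activity is its cleaved/total read fraction divided by the unmutated ribozyme's. Barcoded error-prone PCR libraries were transcribed by T7 RNA polymerase (5 hours, 37°C) and held in DNase I for 15 min before an EDTA stop, with cleavage occurring throughout. Template-switching reverse transcription and Illumina sequencing were used to read the RNAs. A 5-read minimum applied, and results are the mean of three batches.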
As to UAACAGGGGGGCACAGCAGAAGCGUUCACGUCGCAGCCGCUGUCAGAUUCUGGUGAAUCUGCGAAUUCUGCUGUAUAUCUC [C11G C39G], the self-cleavage was determined as 0.11.
On to UAACAGGGGGGCACAGUAGAAGCGUUCACGUCGCAGCCCCUGUCAGAUUCUGGUGAAUCUGCGAAUUCUGCUGUAUAUCUC [C11G C17U], for which the self-cleavage came to 0.19.
The result for UAACAGGGGGGCACAGCAGAAGCGUUCACGUCGGAGCCCCUGUCAGAUUCUGGUGAAUCUGCGAAUUCUGCUGUAUAUCUC [C11G C34G] reads 0.38.
The result for UAACAGGGGGACACAGCAGAAGCGUUCACGUCGCAGCCCCUGUCAGAUUCUGGUGAAUCUGCGAAUUCUGCAGUAUAUCUC [C11A U72A] reads 0.15; that for UAACAGGGGGACACAGCAGAAGCGUUCACGUCGCAGCCCCUGUCAGAUUCUGGUGAAUCUGCGAAUUCUGCCGUAUAUCUC [C11A U72C], 0.52; that for UAACAGGGGGGCACAGCAGAAGCGUUCACGUCGCAUCCCCUGUCAGAUUCUGGUGAAUCUGCGAAUUCUGCUGUAUAUCUC [C11G G36U], 0.09.
Turning to UAACAGGGGGGCACAGCAGUAGCGUUCACGUCGCAGCCCCUGUCAGAUUCUGGUGAAUCUGCGAAUUCUGCUGUAUAUCUC [C11G A20U], the self-cleavage amounted to 0.12.
In the case of UAACAGGGGGGCACAGCAGGAGCGUUCACGUCGCAGCCCCUGUCAGAUUCUGGUGAAUCUGCGAAUUCUGCUGUAUAUCUC [C11G A20G] it was 0.56.
In the case of UAACAGGGGGGCACAGCAGAAGCGUUCACGUCGCAGCCCCUGUCAUAUUCUGGUGAAUCUGCGAAUUCUGCUGUAUAUCUC [C11G G46U] it was 0.1; in that of UAACAGGGGGGCACAGCAGAAGCGUUCACGUCGCAGCCCCUGUCAGGUUCUGGUGAAUCUGCGAAUUCUGCUGUAUAUCUC [C11G A47G], 0.61; in that of UAACAGGGGGACACAGCAGAAGCGUUCACGUCGCAGCCCCUGUCAGAUUCUGGUGAACCUGCGAAUUCUGCUGUAUAUCUC [C11A U58C], 0.43.
The result for UAACAGGGGGGCACAGCAGAAGCGUUCACGUCGCCGCCCCUGUCAGAUUCUGGUGAAUCUGCGAAUUCUGCUGUAUAUCUC [C11G A35C] reads 0.33.
As to UAACAGGGGGGCACAGCAGAAGCGUUCACGUCGCUGCCCCUGUCAGAUUCUGGUGAAUCUGCGAAUUCUGCUGUAUAUCUC [C11G A35U], the self-cleavage was 0.18.
The result for UAACAGGGGGGCACAGCAGAAGCGUUCACGUCGCGGCCCCUGUCAGAUUCUGGUGAAUCUGCGAAUUCUGCUGUAUAUCUC [C11G A35G] reads 0.56; that for UAACAGGGGGGCACAGCAGAAGCGUUCACGUCGCAGCCCCUGUCAGAUUCUGGUGAAUCUGCGAAUUCUGCUCUAUAUCUC [C11G G73C], 0.97; that for UAACAGGGGGGCACAGCAGAAGCGUUCACGUCGCAGCCCCUGUCUGAUUCUGGUGAAUCUGCGAAUUCUGCUGUAUAUCUC [C11G A45U], 0.23.
In the case of UAACAGGGGGGCACAGCAGAAGCGUUCACGUCGCAGCCCCUGUCCGAUUCUGGUGAAUCUGCGAAUUCUGCUGUAUAUCUC [C11G A45C] it was 0.07; in that of UAACAGGGGGGCACAGCAGAAGCGUUCACGUCGCAGCCCCUGUCGGAUUCUGGUGAAUCUGCGAAUUCUGCUGUAUAUCUC [C11G A45G], 0.35; in that of UAACAGGGGGGCACAGCAGAAGCGUUCACUUCGCAGCCCCUGUCAGAUUCUGGUGAAUCUGCGAAUUCUGCUGUAUAUCUC [C11G G30U], 0.09.
The result for UAACAGGGGGGCACAGCAGAAGCGUUCACGUCGCAGCCCCUUUCAGAUUCUGGUGAAUCUGCGAAUUCUGCUGUAUAUCUC [C11G G42U] reads 0.37; that for UAACAGGGGGGCACAGCAGAAGCGUUCACGUCGCAGCCCCUGUCAGAUUCUGGUGAAUCUGCGGAUUCUGCUGUAUAUCUC [C11G A64G], 0.4; that for UAACAGGGGGGCACAGCAGAAGCGUUCACGUCGCAGCCCCUGUCAGAUUCUGGUGAAUCUGCGUAUUCUGCUGUAUAUCUC [C11G A64U], 0.16.
Regarding UAACAGGGGGACACAGCAGAAGCGUUCACGUCGCAGCCCCUGUCAGAUUCUGGUGAAUCUGCGAAUUCUGCUGCAUAUCUC [C11A U74C], the self-cleavage came to 0.6.
Consider UAACAGGGGGGCACAGCAGAAGCGAUCACGUCGCAGCCCCUGUCAGAUUCUGGUGAAUCUGCGAAUUCUGCUGUAUAUCUC [C11G U25A], for which the self-cleavage was found to be 0.1.
Consider UAACAGGGGGGCACAGCAGAAGCGCUCACGUCGCAGCCCCUGUCAGAUUCUGGUGAAUCUGCGAAUUCUGCUGUAUAUCUC [C11G U25C], for which the self-cleavage was 0.22.
In the case of UAACAGGGGGACACAGCAGAAGCGUUCACGUCGCAGCCCCUGUCAGAUUCUGGUGAAUCUGCGAAUUCCGCUGUAUAUCUC [C11A U69C] it was 0.17.
The result for UAACAGGGGGGCACAGCUGAAGCGUUCACGUCGCAGCCCCUGUCAGAUUCUGGUGAAUCUGCGAAUUCUGCUGUAUAUCUC [C11G A18U] reads 0.39.
In the case of UAACAGGGGGGCACAGCGGAAGCGUUCACGUCGCAGCCCCUGUCAGAUUCUGGUGAAUCUGCGAAUUCUGCUGUAUAUCUC [C11G A18G] it was 0.54; in that of UAACAGGGGGGCACAGCAGAGGCGUUCACGUCGCAGCCCCUGUCAGAUUCUGGUGAAUCUGCGAAUUCUGCUGUAUAUCUC [C11G A21G], 0.3; in that of UAACAGGGGGGCACAGCAGACGCGUUCACGUCGCAGCCCCUGUCAGAUUCUGGUGAAUCUGCGAAUUCUGCUGUAUAUCUC [C11G A21C], 0.08.
For UAACAGGGGGACACAGCAGAAGCGUUCACGUCGCAGCCCCUGUCAGAUUCUGGUGAAUCUGCGAAUUCUGCUGUAUAACUC [C11A U78A], the self-cleavage was 0.47.
In the case of UAACAGGGGGACACAGCAGAAGCGUUCACGUCGCAGCCCCUGUCAGAUUCUGGUGAAUCUGCGAAUUCUGCUGUAUACCUC [C11A U78C] it was 0.31; in that of UAACAGGGGGGCACAGCAGAAGCGUUCACGUCGCAGCCCCUGUCAGAUUCUGGUGAAUCUGCGAAUUCUACUGUAUAUCUC [C11G G70A], 0.26; in that of UAACAGGGGGGCACAGCAGAAGCGUUCACGUCGCAGCCCCUGUCAGAUUCUGGUGAAUCUGCGAAUUCUUCUGUAUAUCUC [C11G G70U], 0.23.

The values are drawn from the RNAGym collection of RNA variant scans (doi:10.1093/nar/gkz1192).
